Results: PMC9160799, “PET Imaging of Acidic Tumor Environment With ^89Zr-labeled pHLIP Probes” (Frontiers in Oncology, 2022)
“Also recorded” adds a separate entry of the source. Where two headings read alike, the source gives them in different places. Square brackets hold non-standard residues; d marks the D form. Peptide text beside a SMILES is read from it. * marks the point of attachment. X1 = CC(=O)N(O)CCCCCNC(=O)CCC(=O)N(O)CCCCCNC(=O)CCC(=O)N(O)CCCCCNC(=O)CCC(=O)N(O)CCCCCNC(=S)Nc1ccc(NC(=S)*)cc1

Legend:
[1] = Post-mortem biodistribution, RM-1 tumor model; assay type: in vivo, male athymic nude mice; details: male, athymic nude, mouse, iv, 1.2 nmol, total radioactivity; for tissue uptake at 48 h: RM-1, male athymic nude mice, 48 h p.i., i.v. 1.2 nmol, 7.4 MBq, gamma counting, mean ± S.D., n=4
Experimental: The media were provided by the MSK Media Preparation Core. […] Another aliquot was diluted with the medium so that 50 µL contained 1×10^6 cells.
(§1) The imaging and biodistribution studies were performed with male (RM-1 model) and female (4T1 model) athymic nude mice and the kidney-blocking experiments were performed with female SCID mice received from Charles River Laboratories (Stone Ridge, NY). After arrival, the mice were kept in the MSK vivarium for one week before any experimental handling was performed. The animals were allowed free access to water and food, and all animal care and experimental procedures were approved by the Institutional Animal Care and Use Committee (IACUC). For the subcutaneous allografts, a 1-to-1 ratio of Corning Matrigel Matrix and the cell solution was prepared and stored on ice for the injections. Each mouse received a subcutaneous injection of 100 µL (50 µL cell solution, viability > 90%, + 50 µL Matrigel) into the flank on the level of the right shoulder. The injections were performed under anesthesia (2% isoflurane, Baxter Healthcare, Deerfield, IL, USA).
The mice were intravenously injected (tail vein) with the radiolabeled pHLIP conjugates (1.2 nmol, 7.4 MBq/200 µCi, 100 µL, in sterile filtered PBS). The activity of the syringe prior to injection and after injection was used to determine the percent of injectate administered.
For the biodistribution studies the tumor-bearing mice were randomized before the injections. Only mice with suitable tumors (150–300 mm^3) were utilized. An exception was made for the 120-hour timepoint, for which only mice with smaller tumors (150 mm^3) were selected. The mice were grouped in cohorts of four. At the respective timepoint, the mice were euthanized (by CO2 asphyxiation, followed by cervical dislocation) and their blood was collected by cardiac puncture as a terminal procedure, followed by quick removal of the tumors. After this, the other organs/samples were collected. […] The exact activities of all samples of one mouse were determined by an Capintec® CRC-55tR dose calibrator. These decay-corrected measurements were used to determine a calibration factor and calibrate all counts to the corresponding activities. Activity concentrations were calculated as percentage injected dose per tissue weight (%ID/g wet tissue). All data was processed and visualized using Origin 8.5.

[2] = tested on: kidney uptake of [89Zr]Zr-DFOsqa-Lys-Var3; assay: Kidney-blocking study (PET imaging); assay type: in vivo, healthy female SCID mice; details: drug IV 30 min before 7.4 MBq [89Zr]Zr-DFOsqa-Lys-Var3 (1.2 nmol); two doses per drug, n=2 each; PET 24 h p.i. vs control mice
Experimental: as §1, with “USA). Palpable tumors of similar size (100–300 mm^3) developed 5–8 days after grafting.” for “USA).”
PET images were obtained at the respective timepoints with the mice under anesthesia (2% isoflurane) on a microPET Focus 120 (Concorde Microsystems) or an Inveon PET-CT (Siemens) rodent scanner. All images were analyzed using the Medical Imaging Data Examiner Amide (version 0.9.0) or the Inveon reconstruction software suite. The counting rates in the reconstructed images were converted to percent of injected dose per weight (%ID/g) by applying a system-specific calibration factor. At the final timepoint, the remaining mice were euthanized (by CO2 asphyxiation, followed by cervical dislocation) and their tumors were resected for histological analysis.
Additional experiments were performed to investigate the influence of various kidney-uptake blockers and diuretics. Healthy female SCID mice received a “blocking agent” 30 minutes prior to the injection of [^89Zr]Zr-DFOsqa-Lys-Var3 (7.4 MBq/200 µCi, 1.2 nmol). […] The experimental set-up can be found in Table S6 .
Table S6. Summary of the kidney-blocking study. Healthy female SCID mice (2 mice per experiment/ dosage + 2 control mice without treatment, total of 22 mice) received a blocking agent intravenously 30 minutes prior to the injection of 7.4 MBq/200 µCi [89Zr]Zr-DFOsqa-Lys-Var3 (1.2 nmol pHLIP).
The drug dose was calculated as weight of drug (mg) per weight of mouse (kg). A potential kidney […]
calibrated images to the control mice (24 hours post injection). No drug led to a significant reduction […]
drug (IV 30 min before dose [mg/kg] effect on kidney mechanism of action [89Zr]Zr-pHLIP) (n=2) uptake […]
and water from the body; acts as a diuretic […]
organic anion transporter; blocks the uptake of organic anions […]
tubule via inhibition of the Na/Cl symporter; acts as a diuretic […]
increased – serum levels decreased

## CC[C@@H](C)[C@@H](NC(=O)[C@H]1CCCN1C(=O)[C@@H](CC(N)=O)NC(=O)[C@@H](CCC(N)=O)NC(=O)[C@@H](CCC(=O)O)NC(=O)[C@@H](CCCCNC(=S)Nc1ccc(NC(=S)NCCCCCN(O)C(=O)CCC(=O)NCCCCCN(O)C(=O)CCC(=O)NCCCCCN(O)C(C)=O)cc1)NC(=O)[C@@H](C)NC(C)=O)C(=O)N[C@H](Cc1ccc(O)cc1)C(=O)N[C@H](Cc1c[nH]c2ccccc12)C(=O)N[C@H](C)C(=O)N[C@H](CCCNC(=N)N)C(=O)N[C@H](Cc1ccc(O)cc1)C(=O)N[C@H](C)C(=O)N[C@H](CC(=O)O)C(=O)N[C@H](Cc1c[nH]c2ccccc12)C(=O)N[C@H](CC(C)C)C(=O)N[C@H](Cc1ccccc1)C(=O)N[C@@H](C(=O)N[C@@H](C(=O)N1CCC[C@@H]1C(=O)N[C@H](CC(C)C)C(=O)N[C@H](CC(C)C)C(=O)N[C@H](CC(C)C)C(=O)N[C@H](CC(C)C)C(=O)N[C@H](CC(=O)O)C(=O)N[C@H](CC(C)C)C(=O)N[C@H](C)C(=O)N[C@H](CC(C)C)C(=O)N[C@H](CC(C)C)C(=O)N[C@@H](C(=O)N[C@H](CC(=O)O)C(=O)N[C@H](C)C(=O)N[C@H](CC(=O)O)C(=O)N[C@H](CCC(=O)O)C(=O)NCC(=O)N[C@@H](C(=O)NCC(=O)O)[C@H](C)O)C(C)C)[C@H](C)O)[C@H](C)O (89Zr complex, metal not drawn) [DFO-Lys-WT]
[1]; blood, read-out: Blood uptake
  tissue uptake at 48 h: 0.1 ± 0.03 %ID/g
[1]; tibia, read-out: Tibia uptake
  tissue uptake at 48 h: 2.3 ± 0.5 %ID/g

## CN(C)c1nc(N)c(C(=O)NC(=N)N)nc1Cl [5-(N,N-dimethyl)amiloride]
[2]
  effect on kidney uptake: not significant; also recorded: none of these drugs led to a significant reduction of kidney uptake

## CC(=O)N[C@H](C)C(=O)N[C@H](CCCCNC(=S)Nc1ccc(NC(=S)NCCCCCN(O)C(=O)CCC(=O)NCCCCCN(O)C(=O)CCC(=O)NCCCCCN(O)C(=O)CCC(=O)NCCCCCN(O)C(C)=O)cc1)C(=O)N[C@H](CC(=O)O)C(=O)N[C@H](CC(=O)O)C(=O)N[C@H](CCC(N)=O)C(=O)N[C@H](CC(N)=O)C(=O)N1CCC[C@@H]1C(=O)N[C@H](Cc1c[nH]c2ccccc12)C(=O)N[C@H](CCCNC(=N)N)C(=O)N[C@H](C)C(=O)N[C@H](Cc1ccc(O)cc1)C(=O)N[C@H](CC(C)C)C(=O)N[C@H](CC(=O)O)C(=O)N[C@H](CC(C)C)C(=O)N[C@H](CC(C)C)C(=O)N[C@H](Cc1ccccc1)C(=O)N1CCC[C@@H]1C(=O)N[C@@H](C(=O)N[C@H](CC(=O)O)C(=O)N[C@@H](C(=O)N[C@H](CC(C)C)C(=O)N[C@H](CC(C)C)C(=O)N[C@H](CC(C)C)C(=O)N[C@H](CC(=O)O)C(=O)N[C@H](CC(C)C)C(=O)N[C@H](CC(C)C)C(=O)N[C@H](Cc1c[nH]c2ccccc12)C(=O)N[C@H](C)C(=O)O)[C@H](C)O)[C@H](C)O [DFO*-Lys-Var3] (Ac-[dA][dK](X1)[dD][dD][dQ][dN][dP][dW][dR][dA][dY][dL][dD][dL][dL][dF][dP][dT][dD][dT][dL][dL][dL][dD][dL][dL][dW][dA]-OH; C-terminus assumed)
[1]; in vivo, read-out: Tibia uptake
  tissue uptake at 48 h: 1.1 ± 0.5 %ID/g

## CC[C@@H](C)[C@@H](NC(=O)[C@H]1CCCN1C(=O)[C@@H](CC(N)=O)NC(=O)[C@@H](CCC(N)=O)NC(=O)[C@@H](CCC(=O)O)NC(=O)[C@@H](CCCCNC(=S)Nc1ccc(NC(=S)NCCCCCN(O)C(=O)CCC(=O)NCCCCCN(O)C(=O)CCC(=O)NCCCCCN(O)C(C)=O)cc1)NC(=O)[C@@H](C)NC(C)=O)C(=O)N[C@H](Cc1ccc(O)cc1)C(=O)N[C@H](Cc1c[nH]c2ccccc12)C(=O)N[C@H](C)C(=O)N[C@H](CCCNC(=N)N)C(=O)N[C@H](Cc1ccc(O)cc1)C(=O)N[C@H](C)C(=O)N[C@H](CC(=O)O)C(=O)N[C@H](Cc1c[nH]c2ccccc12)C(=O)N[C@H](CC(C)C)C(=O)N[C@H](Cc1ccccc1)C(=O)N[C@@H](C(=O)N[C@@H](C(=O)N1CCC[C@@H]1C(=O)N[C@H](CC(C)C)C(=O)N[C@H](CC(C)C)C(=O)N[C@H](CC(C)C)C(=O)N[C@H](CC(C)C)C(=O)N[C@H](CC(=O)O)C(=O)N[C@H](CC(C)C)C(=O)N[C@H](C)C(=O)N[C@H](CC(C)C)C(=O)N[C@H](CC(C)C)C(=O)N[C@@H](C(=O)N[C@H](CC(=O)O)C(=O)N[C@H](C)C(=O)N[C@H](CC(=O)O)C(=O)N[C@H](CCC(=O)O)C(=O)NCC(=O)N[C@@H](C(=O)NCC(=O)O)[C@H](C)O)C(C)C)[C@H](C)O)[C@H](C)O [DFO-Lys-WT]
[1]; in vivo, read-out: Brain uptake
  tissue uptake at 48 h: 0.03 ± 0.03 %ID/g
[1]; in vivo, read-out: Kidneys uptake
  tissue uptake at 48 h: 14.2 ± 1.2 %ID/g
[1]; in vivo, read-out: Liver uptake
  tissue uptake at 48 h: 14.8 ± 4.7 %ID/g
[1]; in vivo, read-out: Lungs uptake
  tissue uptake at 48 h: 11.5 ± 0.4 %ID/g
[1]; in vivo, read-out: Muscle uptake
  tissue uptake at 48 h: 0.3 ± 0.08 %ID/g
[1]; in vivo, read-out: Pancreas uptake
  tissue uptake at 48 h: 0.9 ± 0.4 %ID/g
[1]; in vivo, read-out: Skin uptake
  tissue uptake at 48 h: 1.5 ± 0.2 %ID/g
[1]; in vivo, read-out: Spleen uptake
  tissue uptake at 48 h: 25.8 ± 5.5 %ID/g
[1]; in vivo, read-out: Tumor uptake
  tissue uptake at 48 h: 1.6 ± 0.1 %ID/g
[1]; tumor / muscle, RM-1 model, 48-hour timepoint, read-out: tumor-to-muscle uptake-ratio
  tissue to tissue ratio at 48 h: 5.5 ± 1.5

## CC(=O)Nc1nnc(S(N)(=O)=O)s1 [acetazolamide]
[2]
  effect on kidney uptake: not significant; also recorded: none of these drugs led to a significant reduction of kidney uptake

## N=C(N)NC(=O)c1nc(Cl)c(N)nc1N [amiloride]
[2]
  effect on kidney uptake: not significant; also recorded: none of these drugs led to a significant reduction of kidney uptake
